Reference: US5679782A, “Oligonucleotides encloding peptide inhibitors of urokinase receptor activity” (Chiron Corporation, priority 1995, dated 1997)
Like-named read-outs stand apart in the source and are kept apart here. Blank lines part the entries; values can stand above or below the molecule they belong to. Peptide text beside a SMILES is read from it.

Assays:
[1] = target: T1, huPAR (Homo sapiens, UniProt Q03405); experiment: Recovery of phage on Sf9 cells expressing full length huPAR; format: binding; settings: phage displaying the sequence; Sf9 cells expressing fluPAR
T1 construct: Sf9 cells expressing full length huPAR ("fluPAR", day 2 post infection); expressed in transfected cells; host or cells: Sf9 insect cells (day 2 post infection)
T1 sequence (Q03405 23-335): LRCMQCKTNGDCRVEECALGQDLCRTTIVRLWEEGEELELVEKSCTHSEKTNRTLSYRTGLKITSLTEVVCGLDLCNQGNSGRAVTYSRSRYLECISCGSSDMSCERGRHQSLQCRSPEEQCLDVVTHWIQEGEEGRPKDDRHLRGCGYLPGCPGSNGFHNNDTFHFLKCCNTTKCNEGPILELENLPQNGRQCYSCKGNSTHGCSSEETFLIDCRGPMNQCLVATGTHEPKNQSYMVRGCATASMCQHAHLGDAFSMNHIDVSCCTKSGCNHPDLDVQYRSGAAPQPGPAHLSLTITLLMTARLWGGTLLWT
Protocol: 1.) 15mer phage (2.5×10^10) prepared as described above were selected by coincubation with 10^6 Sf9 cells expressing full length huPAR ("fluPAR", day 2 post infection) at room temperature for 60 minutes in Grace's medium with 2% nonfat milk. Binding phage were eluted with 6M urea (pH 2.2), the pH neutralized by adding 2M Tris-HCl, and assayed. The yield of binding phage was 0.0013% (3.3×10^5 pfu). The phage were amplified on solid agar plates as plaques, eluted with Tris-buffered saline, and precipitated with polyethylene glycol.
(§1) 3.) The phage selected in round 2 were reselected on Sf9 cells expressing fluPAR (day 2 post-infection) as described for round 1 (2.8×10^10 phage on 10^6 Sf9 cells). The yield of binding phage from this round was 5.40% (1.5×10^9 pfu), indicating a substantial enrichment in binding phage. Sample phage from the urea eluate were cloned, and their DNAs isolated and sequenced. Binding was assayed against Sf9 cells expressing fluPAR, and Sf9 cells expressing substance P receptor ("SPR," as a control).

[2] = target: T2, substance P receptor (SPR) (Homo sapiens, UniProt P25103); experiment: Recovery of phage on Sf9 cells expressing substance P receptor (control); format: binding; settings: phage displaying the sequence
T2 construct: expressed in transfected cells; host or cells: Sf9 insect cells
T2 sequence (P25103 whole entry, species assumed): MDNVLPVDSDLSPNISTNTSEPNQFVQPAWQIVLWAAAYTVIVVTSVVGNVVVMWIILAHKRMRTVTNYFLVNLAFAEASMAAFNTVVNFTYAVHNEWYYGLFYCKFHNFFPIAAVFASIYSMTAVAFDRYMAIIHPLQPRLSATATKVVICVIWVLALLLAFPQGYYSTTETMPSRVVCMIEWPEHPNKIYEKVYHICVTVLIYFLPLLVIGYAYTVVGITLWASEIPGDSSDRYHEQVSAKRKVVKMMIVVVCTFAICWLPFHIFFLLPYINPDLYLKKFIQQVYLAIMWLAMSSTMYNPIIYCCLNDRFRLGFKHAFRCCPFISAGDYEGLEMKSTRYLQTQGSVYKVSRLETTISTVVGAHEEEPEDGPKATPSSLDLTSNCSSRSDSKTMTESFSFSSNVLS
Protocol: as §1

[3] = target: T3, human urokinase receptor (Homo sapiens, UniProt Q03405); experiment: Competition of 125I-ATF binding to immobilized soluble recombinant human urokinase receptor; settings: read-out: Affinity
T3 construct: expressed as a truncated, soluble molecule as described previously for mouse L-cells (Masucci et al., J Biol Chem (1991) 266:8655); made in house; host or cells: baculovirus / insect cells
T3 sequence (Q03405 23-299 limits assumed): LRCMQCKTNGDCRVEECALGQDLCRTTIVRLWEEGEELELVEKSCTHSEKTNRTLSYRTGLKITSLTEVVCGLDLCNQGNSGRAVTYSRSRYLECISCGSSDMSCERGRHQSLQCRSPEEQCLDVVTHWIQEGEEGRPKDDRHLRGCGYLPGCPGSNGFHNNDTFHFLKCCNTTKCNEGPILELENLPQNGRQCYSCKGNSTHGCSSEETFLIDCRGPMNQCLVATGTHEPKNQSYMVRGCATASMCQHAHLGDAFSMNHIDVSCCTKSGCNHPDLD
Text: 4.) The peptides encoded by 25 phage were then synthesized by solid phase peptide chemistry on an Applied Biosystems Model 430A peptide synthesizer,using Boc chemistry, or were obtained from Chiron Mimotopes, Ltd., as soluble peptides. All peptides contained the Ala-Glu dipeptide at the amino terminus and were amidated at the carboxy terminus.
Baculovirus-derived recombinant human urokinase receptor was expressed as a truncated, soluble molecule as described previously for mouse L-cells (Masucci et al., J Biol Chem (1991) 266:8655). The purified receptor was biotinylated with NHS-biotin, and immobilized at 1 μg/mL in PBS/0.1% BSA on streptavidin coated 96-well plates. Human uPA ATF (residues 1-135, obtained from M. Shuman, University of California, San Francisco) was iodinated using the Iodogen method (Pierce), and used as tracer. The ^125 I-ATF was incubated at 100-500 pM with increasing amounts of peptide from 1 nM to 10 μM in triplicate for 2 hours at room temperature in 0.1% BSA/PBS in a total volume of 200 μL. The plates were then washed 3 times with PBS/BSA, and the remaining bound radioactivity determined.
*Assay performed at 100 pM ATF, 0.3 μg/ml suPAR in 200 μL. Other
assays are corrected to these conditions; corrections are about 3 ×
from previous assay conditions.

[4] = target: uPAR (Homo sapiens, UniProt Q03405); settings: Appella et al. 1987; cited from earlier work
Chain of uPAR (Q03405 23-335, species assumed): as the sequence (Q03405 23-335) above

[5] = unstarred values: corrected to 100 pM ATF, 0.3 μg/ml suPAR, corrections about 3 × from previous assay conditions

Molecule: CC(C)C[C@H](NC(=O)CNC(=O)[C@@H]1CCCN1C(=O)[C@H](Cc1c[nH]cn1)NC(=O)[C@H](Cc1c[nH]c2ccccc12)NC(=O)[C@H](CCC(=O)O)NC(=O)[C@H](C)N)C(=O)N[C@@H](CO)C(=O)N[C@@H](Cc1ccccc1)C(=O)NCC(=O)N[C@@H](CO)C(=O)N[C@@H](Cc1ccc(O)cc1)C(=O)N[C@@H](CC(C)C)C(=O)N[C@@H](Cc1c[nH]c2ccccc12)C(=O)N[C@@H](CO)C(=O)N[C@@H](CCCCN)C(=O)N[C@H](C(N)=O)[C@@H](C)O [compound 2] (H-AEWHPGLSFGSYLWSKT-NH2)
- Kd [3, 5]: 0.35 µM

Molecule: CSCC[C@H](NC(=O)[C@@H](NC(=O)[C@H](CC(N)=O)NC(=O)[C@H](CO)NC(=O)[C@H](CC(C)C)NC(=O)[C@H](Cc1ccccc1)NC(=O)[C@H](Cc1c[nH]c2ccccc12)NC(=O)[C@H](C)NC(=O)[C@H](CCC(=O)O)NC(=O)[C@H](C)N)[C@@H](C)O)C(=O)N[C@@H](CCCCN)C(=O)N[C@@H](C)C(=O)N[C@@H](CC(C)C)C(=O)N[C@@H](CO)C(=O)N[C@@H](C)C(=O)N[C@@H](CCCNC(=N)N)C(=O)N[C@@H](CC(C)C)C(N)=O [compound 13] (H-AEAWFLSNTMKALSARL-NH2)
- Kd [3, 5]: 5 µM

Molecule: uPA12-32: The critical domain alone, residues 12-32 of uPA EGF-like domain (DCLNGGTCVSNKYFSNIHWCN; UniProt P00749 32-52, looked up, fragment)
- affinity fold less than intact ATF [4]: about 100 fold

Results, then the molecule that gave them:

- % Recovery huPAR [1]: 6.8%
- % Recovery SPR [2]: 0.008%
Molecule: 37 (AECLNGGTAVSNKYFSNIHWCN) [compound 37]

- Kd ([3]; starred values: assay performed at 100 pM ATF, 0.3 μg/ml suPAR in 200 μL): 4 µM
Molecule: CC(C)C[C@H](NC(=O)[C@H](CCCNC(=N)N)NC(=O)[C@H](CC(C)C)NC(=O)[C@@H]1CCCN1C(=O)[C@H](Cc1ccccc1)NC(=O)[C@H](CCC(N)=O)NC(=O)[C@H](Cc1ccc(O)cc1)NC(=O)[C@H](CC(C)C)NC(=O)[C@H](CCC(N)=O)NC(=O)[C@H](Cc1c[nH]c2ccccc12)NC(=O)[C@H](CC(C)C)NC(=O)[C@@H](NC(=O)[C@@H]1CCCN1C(=O)[C@H](CCC(=O)O)NC(=O)[C@H](C)N)[C@@H](C)O)C(=O)N[C@@H](CO)C(=O)NCC(N)=O [compound 14] (H-AEPTLWQLYQFPLRLSG-NH2)
